The values that follow come from patent publication US11278600B2, “Human alpha-galactosidase variants” (Codexis, Inc., priority 2014, dated 2022).

The labels stand for the following.
B1: 424 (protein)
chain: LDNGLARTPTMGWLHWERFMCNLDCQEEPDSCISEKLFMEMAERMVSEGWKDAGYEYLCIDDCWMAPQRDSEGRLQADPQRFPHGIRQLANYVHSKGLKLGIYADVGNKTCAGFPGSFGYYDIDAQTFADWGVDLLKFDGCYCDSLENLADGYKHMSLALNRTGRSIVYSCEWPLYMWPFQKPNYTEIRQYCNHWRNFADIDDSWKSIKSILDWTSRNQERIVDVAGPGGWNDPDMLVIGNFGLSWDQQVTQMAEWAIMAAPLFMSNDLRHISPQAKALLQDKDVIAINQDPLGKQGYQLRKGDNFEVWERPLSGDAWAVAIINRQEIGGPRSYTIPVASLGKGVACNPACFITQLLPVKRQLGFYNWTSRLKSHINPTGTVLLQLENTMQMSLKDLL
modifications: Synthetic Polypeptide sequence of Variant No. 424 of mature Human GLA
B2: 434 (protein)
chain: B1 chain with E255L, R270D
modifications: Synthetic Polypeptide sequence of Variant No. 434 of mature Human GLA
B3: 425 (protein)
chain: B1 chain with E255L, H271E
modifications: Synthetic Polypeptide sequence of Variant No. 425 of mature Human GLA
B4: 429 (protein)
chain: B1 chain with E255C
modifications: Synthetic Polypeptide sequence of Variant No. 429 of mature Human GLA
B5: 433 (protein)
chain: B1 chain with E255L, H271Q
modifications: Synthetic Polypeptide sequence of Variant No. 433 of mature Human GLA
B6: 435 (protein)
chain: B1 chain with E255L, I258L
modifications: Synthetic Polypeptide sequence of Variant No. 435 of mature Human GLA
B7: 432 (protein)
chain: B1 chain with E255L
modifications: Synthetic Polypeptide sequence of Variant No. 432 of mature Human GLA
B8: 430 (protein)
chain: B1 chain with E255L, H271T
modifications: Synthetic Polypeptide sequence of Variant No. 430 of mature Human GLA
B9: 427 (protein)
chain: B1 chain with E255L, L263G
modifications: Synthetic Polypeptide sequence of Variant No. 427 of mature Human GLA
B10: 436 (protein)
chain: B1 chain with E255L, H271G
modifications: Synthetic Polypeptide sequence of Variant No. 436 of mature Human GLA
B11: 437 (protein)
chain: B1 chain with E255L, L263E
modifications: Synthetic Polypeptide sequence of Variant No. 437 of mature Human GLA
B12: 431 (protein)
chain: B1 chain with E255L, R270G
modifications: Synthetic Polypeptide sequence of Variant No. 431 of mature Human GLA
B13: 428 (protein)
chain: B1 chain with E255L, M259S
modifications: Synthetic Polypeptide sequence of Variant No. 428 of mature Human GLA
B14: 364 (protein)
chain: B1 chain with M39H, E255L
modifications: Synthetic Polypeptide sequence of Variant No. 364 of mature Human GLA
B15: 426 (protein)
chain: B1 chain with E255L, M259E
modifications: Synthetic Polypeptide sequence of Variant No. 426 of mature Human GLA

Positions count from the first letter of the chain named.

One data set can be described thus: HTP-analysis of supernatants pretreated with acid (MUGal hydrolysis). The data set is classed as biochemical. Particulars: activity of the variant/activity of Rd4BB (SEQ ID NO: 15); challenge at pH 3.7. The procedure, abridged:
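Fluorescence of MUGal hydrolysis (Ex. 355 nm, Em. 448 nm) is read after sodium carbonate quench. The enzyme source is INVSc1 yeast culture supernatant, first exposed to pH 3.3-4.3 McIlvaine buffer at 37° C. for 1-3 h, then reacted at pH 4.8 for 30-180 minutes.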
As to B1, the “Relative Activity of GLA Variants After Challenge at pH 3.7” value (“Relative Activity … at pH 3.7” for short) is reported as “+ (0.5 to 1.5 relative activity over Rd4BB (SEQ ID NO: 15))”.
The same measure, in the same setting: then B2, with “− (<0.5 relative activity over Rd4BB (SEQ ID NO: 15))”.
Still for that read-out and setting: then B3, with “− (<0.5 relative activity over Rd4BB (SEQ ID NO: 15))”; and B4, with “+ (0.5 to 1.5 relative activity over Rd4BB (SEQ ID NO: 15))”.
For the molecule B5, the “Relative Activity … at pH 3.7” value is on record as “+ (0.5 to 1.5 relative activity over Rd4BB (SEQ ID NO: 15))”.
On to B6, for which the “Relative Activity … at pH 3.7” value is reported as “++ (>1.5 to 2.5 relative activity over Rd4BB (SEQ ID NO: 15))”.
On the same count and under the same terms, then B7, with “− (<0.5 relative activity over Rd4BB (SEQ ID NO: 15))”; and B8, with “− (<0.5 relative activity over Rd4BB (SEQ ID NO: 15))”; and B9, with “− (<0.5 relative activity over Rd4BB (SEQ ID NO: 15))”.
Same read-out and setting: with B10 the entry was “− (<0.5 relative activity over Rd4BB (SEQ ID NO: 15))”; with B11, “+ (0.5 to 1.5 relative activity over Rd4BB (SEQ ID NO: 15))”.
Same read-out and setting: with B12 the entry was “− (<0.5 relative activity over Rd4BB (SEQ ID NO: 15))”; with B13, “+ (0.5 to 1.5 relative activity over Rd4BB (SEQ ID NO: 15))”; with B14, “+ (0.5 to 1.5 relative activity over Rd4BB (SEQ ID NO: 15))”.
Take B15: the “Relative Activity … at pH 3.7” value is listed as “− (<0.5 relative activity over Rd4BB (SEQ ID NO: 15))”.

The nature of the next data set: HTP-analysis of supernatants pretreated with base (MUGal hydrolysis). Particulars: activity of the variant/activity of Rd4BB (SEQ ID NO: 15); challenge at pH 9.65. The data set is classed as biochemical. Summed up:
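GLA variants were secreted by transformed INVSc1 yeast grown 66-84 h at 30° C. Supernatants were exposed to neutral-to-basic buffers (pH 7.0-9.7) at 37° C for 1-18 h, then assayed with MUGal in acidic citrate/McIlvaine buffer, with fluorescence read after quenching.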
As to B1, the “Relative Activity of GLA Variants After Challenge at pH 9.65” value (shortened to “Relative Activity … at pH 9.65”) is given as “− (<0.5 relative activity over Rd4BB (SEQ ID NO: 15))”.
On the same count and under the same terms, then B2, with “− (<0.5 relative activity over Rd4BB (SEQ ID NO: 15))”; and B3, with “+ (0.5 to 1.5 relative activity over Rd4BB (SEQ ID NO: 15))”; and B4, with “− (<0.5 relative activity over Rd4BB (SEQ ID NO: 15))”.
Regarding B5, the “Relative Activity … at pH 9.65” value is on record as “+ (0.5 to 1.5 relative activity over Rd4BB (SEQ ID NO: 15))”.
On the same count and under the same terms, with B6 the entry was “− (<0.5 relative activity over Rd4BB (SEQ ID NO: 15))”; with B7, “+ (0.5 to 1.5 relative activity over Rd4BB (SEQ ID NO: 15))”; with B8, “+ (0.5 to 1.5 relative activity over Rd4BB (SEQ ID NO: 15))”.
In the case of B9, the “Relative Activity … at pH 9.65” value is reported as “− (<0.5 relative activity over Rd4BB (SEQ ID NO: 15))”.
The same measure, in the same setting: with B10 the entry was “− (<0.5 relative activity over Rd4BB (SEQ ID NO: 15))”.
In the case of B11, the “Relative Activity … at pH 9.65” value is “− (<0.5 relative activity over Rd4BB (SEQ ID NO: 15))”.
On the same count and under the same terms, then B12, with “− (<0.5 relative activity over Rd4BB (SEQ ID NO: 15))”.
The same measure, in the same setting: then B13, with “− (<0.5 relative activity over Rd4BB (SEQ ID NO: 15))”; and B14, with “− (<0.5 relative activity over Rd4BB (SEQ ID NO: 15))”.
The same measure, in the same setting: then B15, with “− (<0.5 relative activity over Rd4BB (SEQ ID NO: 15))”.

The next data set can be described thus: HTP-analysis of yeast culture supernatants, no challenge (MUGal hydrolysis). It counts as biochemical. As to conditions: activity of the variant/activity of Rd4BB (SEQ ID NO: 15). The procedure, abridged:
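Activity read as 4-methylumbelliferyl α-D-galactopyranoside hydrolysis: fluorescence (355/448 nm) after sodium carbonate stop, following 30-180 min at 37° C with 2 mM MUGal stock at pH 4.6–4.8. Enzyme source is unchallenged culture supernatant of INVSc1 yeast expressing GLA variants, grown 66-84 h at 30° C.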
Take B1: the “Relative Activity of GLA Variants After No Challenge (NC)” value is reported as “+ (0.5 to 1.5 relative activity over Rd4BB (SEQ ID NO: 15))”.
Still for that read-out and setting: then B2, with “+ (0.5 to 1.5 relative activity over Rd4BB (SEQ ID NO: 15))”.
The same measure, in the same setting: then B3, with “+ (0.5 to 1.5 relative activity over Rd4BB (SEQ ID NO: 15))”.
The same measure, in the same setting: then B4, with “+ (0.5 to 1.5 relative activity over Rd4BB (SEQ ID NO: 15))”; and B5, with “+ (0.5 to 1.5 relative activity over Rd4BB (SEQ ID NO: 15))”; and B6, with “+ (0.5 to 1.5 relative activity over Rd4BB (SEQ ID NO: 15))”.
With B7, the “Relative Activity of GLA Variants After No Challenge (NC)” value was “+ (0.5 to 1.5 relative activity over Rd4BB (SEQ ID NO: 15))”.
On the same count and under the same terms, with B8 the entry was “+ (0.5 to 1.5 relative activity over Rd4BB (SEQ ID NO: 15))”; with B9, “+ (0.5 to 1.5 relative activity over Rd4BB (SEQ ID NO: 15))”; with B10, “+ (0.5 to 1.5 relative activity over Rd4BB (SEQ ID NO: 15))”.
Take B11: the “Relative Activity of GLA Variants After No Challenge (NC)” value was “+ (0.5 to 1.5 relative activity over Rd4BB (SEQ ID NO: 15))”.
Same read-out and setting: with B12 the entry was “+ (0.5 to 1.5 relative activity over Rd4BB (SEQ ID NO: 15))”.
As to B13, the “Relative Activity of GLA Variants After No Challenge (NC)” value is on record as “+ (0.5 to 1.5 relative activity over Rd4BB (SEQ ID NO: 15))”.
For B14, the “Relative Activity of GLA Variants After No Challenge (NC)” value is recorded as “+ (0.5 to 1.5 relative activity over Rd4BB (SEQ ID NO: 15))”.
The same measure, in the same setting: then B15, with “+ (0.5 to 1.5 relative activity over Rd4BB (SEQ ID NO: 15))”.
